Experimental data from publication PMC8330776 (Emerging Microbes & Infections, 2021).

Biological target: SARS-CoV-2 S trimer (SARS-CoV-2, UniProt P0DTC2)
Test: SPR
Details: both partners purified

B1: wheat germ agglutinin (natural protein)
chain: QRCGEQGSNMECPNNLCCSQYGYCGMGGDYCGKGCQNGACWTSKRCGSQAGGATCTNNQCCSQYGYCGFGAEYCGAGCQGGPCRADIKCGSQAGGKLCPNNLCCSQWGFCGLGSEFCGGGCQSGACSTDKPCGKDAGGRVCTNNYCCSKWGSCGIGPGYCGAGCQSGGCDG
  Kd: 1.5 nM
  koff: 0.00482 s⁻¹
  kon: 3.21e+06 M⁻¹ s⁻¹
